Tested on: K4 kissing-loop RNA reporter
Assay: apparent KD of K4 kissing-loop reporter; higher = weaker reporter binding
Details: Eterna round: R107; input ligand: none
Experimental: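 RNA-MaP round R107: designed RNA switches with theophylline, tryptophan, arginine or FMN aptamers are transcribed on-chip within common flanks. They are titrated with a labelled K4 kissing-loop RNA reporter in RNA-MaP buffer (100 mM Tris pH 7.5, 80 mM KCl, 4 mM MgCl2), without ligand or with the indicated ligand. Median apparent KD per design.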
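Further: bound reporter read as fluorescence of individual clusters on recovered sequencing chips by microscopy, with normalized cluster intensities fitted with a binding model.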

Row | Sequence | apparent KD of K4 kissing-loop reporter [nM]
1 | CGCGCGCGUUGAGAGGCGCGCGCGAAUGAUACCAGUAUAUAAGAAUACCCUUGGCAGCAUAAGAAAGAUAUAGUGAUGUUGUAUA [SSTheophA.E] | 293
2 | GGAUAGGACAAAGGAUAUGGUAGUGAUGUUACCAAACUGGUUAAACAUGUCAGAAAACUGGCAUGACCAGAAGGUUGUCCUAUCG [FmnBX 27 A11+U75] | 66.3
3 | UAUUAAUAUUUUUCAGUGAUGUUAAUUGAUACCAGCCCGAAACCGGGCCCUUGGCAGCGAGUGAUGUUGGUUGUCAGCAUAAAUA [KL-XTheo-A13] | 836
4 | AUCGUUGUCUGAGGAUAUCGUUUAACUGUAGUGAUGUUACAGAAAAUUCAUAUUAUAUUUUCUAUUCGAGAAGGCAGACUACGUA [JR_ExcFMNB_Sub016] | 135
5 | UCUGGUAUAUCUGAUACCAGAGUAUAGUAUCAAUUGCAUAUCCGCAGUGAUGUUGCGGAACUCCCUUGGCAGCAGAUCUAUCUCU [Same State Theophylline B GF 26] | 81.8
6 | GGUCCGGGCUCGGCCGCCACUCCCUCGUACCGCAAGGUAUGAUACCGAGUGAUGUUCGGUUGGAGGAGGACCGGGAGCCCGGACC [#2 Exclusion - Tryptophan B Attempt #9 (HarryS)] | 132
7 | UAAUAAUAAUGAUAAUAAUAAAGUGGUGGACGAGGACCGGUACGGCCGCCACUCGAAAAUGCAGUGAUGUUGUAAUACAAAUAAU [Exclusion - Tryptophan A (Freestyle 1)] | 137
8 | AAGCAUUGGUCUGAUACCAGUUGAUGACGAAUACGUCAACUGGAGUGAUGUUCCUAAAACAACCCUUGGCAGCAGACCGAUGCAA [MAT - Same State Theophlline B - Mod of Eli - D2] | 835
9 | GCGGGCGGCUGAAGGAGCGGGCGGGCCCGAGUGAUGUUCGGGUGGGCUGUGAGGCCCGGAGCCCAGGUAGGUCGCGGUUCCGCCC [#2 Same State - Arginine B Attempt #26 (HarryS)] | 167

Same assay, conditions: Eterna round: R107; input ligand: theophylline 20 uM

Row | Sequence | apparent KD of K4 kissing-loop reporter [nM]
10 | UGUCAUUGGUCUGAUACCAGAAGAUAUUCUGGAGUGAUGUUCCAAGUACGACAAAGUCGCUUCCCUUGGCAGCAGACCGAUGACU [TheoBS 20 #SwitchBubble 13 #StaticStem] | 501
11 | AAAAUAAACCAGUGAUGUUGGUAGCCAGAUACCAGCGACGAAAGUCGCCCUUGGCAGCUGUGGACGUACAAAAUAAGUACGUCCU | 238
12 | ACGUAGUUCUAGGAUACCAGCCAAGGACGCCAGGACAAAAGUCCUGGCGCCAGUGAUGUUGGCCCUUGGCAGCCUAGAACUACGA [Omei KL Theo B Exc B v5] | 205
13 | AGGCGGCAUGAUUGACUGAAAAGAAAUCAACGAGGACCGGUACGGCCGCCACUCGAACACCAGUGAUGUUGGUAUGGGAUAACCC [Exclusion Tryptophan A GF 19] | 173
14 | CGCCGUAAGGCGGUCGCUCCCACUCCGGAAGGAGCGCCCGUAAGGGCAGGUAGGUCGCCGGAGUGAUGUUCCGGUGGAGGGACCG [#2 Exclusion - Arginine A Attempt #8 (Inspired by Omei)] | 352
15 | UUUAUUAAGACGGCCGCCACUGAUUCAUAGUGAUGUUAUGAUAUAAUUUUAGUGAUGUGCAUUAGCAGGACCGGGUCAAUUAUUA [#28 K4 Tryptophan B Exclusion] | 94.7
16 | GUGAAGGAGCAGCAGUGAUGUUGCUGAGACUAGGAUAUCAGGAAACUGAGAAGGAGUCAACUCCUUCACCUAGACUGCAACAUAA [KL-SSFMN-A13] | 249
17 | AAGCAGUCACGCGAAGCCAUCGAAGAUGGCCGAGGACCGGUACGGCCGCCACUCGGAGUGAUGUUCCGAAGACUGCAAAAUAAAA | 468
18 | CGCGCGCGUUGAGAGGCGCGCGCGAAUGAUACCAGUAUAUAAGAAUACCCUUGGCAGCAUAAGAAAGAUAUAGUGAUGUUGUAUA [SSTheophA.E] | 466
19 | GGAUAGGACAAAGGAUAUGGUAGUGAUGUUACCAAACUGGUUAAACAUGUCAGAAAACUGGCAUGACCAGAAGGUUGUCCUAUCG [FmnBX 27 A11+U75] | 61.1
20 | UAUUAAUAUUUUUCAGUGAUGUUAAUUGAUACCAGCCCGAAACCGGGCCCUUGGCAGCGAGUGAUGUUGGUUGUCAGCAUAAAUA [KL-XTheo-A13] | 676
21 | AUCGUUGUCUGAGGAUAUCGUUUAACUGUAGUGAUGUUACAGAAAAUUCAUAUUAUAUUUUCUAUUCGAGAAGGCAGACUACGUA [JR_ExcFMNB_Sub016] | 123
22 | UCUGGUAUAUCUGAUACCAGAGUAUAGUAUCAAUUGCAUAUCCGCAGUGAUGUUGCGGAACUCCCUUGGCAGCAGAUCUAUCUCU [Same State Theophylline B GF 26] | 86.8
23 | GGUCCGGGCUCGGCCGCCACUCCCUCGUACCGCAAGGUAUGAUACCGAGUGAUGUUCGGUUGGAGGAGGACCGGGAGCCCGGACC [#2 Exclusion - Tryptophan B Attempt #9 (HarryS)] | 124
24 | UAAUAAUAAUGAUAAUAAUAAAGUGGUGGACGAGGACCGGUACGGCCGCCACUCGAAAAUGCAGUGAUGUUGUAAUACAAAUAAU [Exclusion - Tryptophan A (Freestyle 1)] | 200
25 | AAGCAUUGGUCUGAUACCAGUUGAUGACGAAUACGUCAACUGGAGUGAUGUUCCUAAAACAACCCUUGGCAGCAGACCGAUGCAA [MAT - Same State Theophlline B - Mod of Eli - D2] | 750
26 | GCGGGCGGCUGAAGGAGCGGGCGGGCCCGAGUGAUGUUCGGGUGGGCUGUGAGGCCCGGAGCCCAGGUAGGUCGCGGUUCCGCCC [#2 Same State - Arginine B Attempt #26 (HarryS)] | 146

Same assay, conditions: Eterna round: R107; input ligand: tryptophan 2.4 mM

Row | Sequence | apparent KD of K4 kissing-loop reporter [nM]
27 | UGUCAUUGGUCUGAUACCAGAAGAUAUUCUGGAGUGAUGUUCCAAGUACGACAAAGUCGCUUCCCUUGGCAGCAGACCGAUGACU [TheoBS 20 #SwitchBubble 13 #StaticStem] | 690
28 | AAAAUAAACCAGUGAUGUUGGUAGCCAGAUACCAGCGACGAAAGUCGCCCUUGGCAGCUGUGGACGUACAAAAUAAGUACGUCCU | 230
29 | ACGUAGUUCUAGGAUACCAGCCAAGGACGCCAGGACAAAAGUCCUGGCGCCAGUGAUGUUGGCCCUUGGCAGCCUAGAACUACGA [Omei KL Theo B Exc B v5] | 176
30 | AGGCGGCAUGAUUGACUGAAAAGAAAUCAACGAGGACCGGUACGGCCGCCACUCGAACACCAGUGAUGUUGGUAUGGGAUAACCC [Exclusion Tryptophan A GF 19] | 159
31 | CGCCGUAAGGCGGUCGCUCCCACUCCGGAAGGAGCGCCCGUAAGGGCAGGUAGGUCGCCGGAGUGAUGUUCCGGUGGAGGGACCG [#2 Exclusion - Arginine A Attempt #8 (Inspired by Omei)] | 330
32 | UUUAUUAAGACGGCCGCCACUGAUUCAUAGUGAUGUUAUGAUAUAAUUUUAGUGAUGUGCAUUAGCAGGACCGGGUCAAUUAUUA [#28 K4 Tryptophan B Exclusion] | 101
33 | GUGAAGGAGCAGCAGUGAUGUUGCUGAGACUAGGAUAUCAGGAAACUGAGAAGGAGUCAACUCCUUCACCUAGACUGCAACAUAA [KL-SSFMN-A13] | 152
34 | AAGCAGUCACGCGAAGCCAUCGAAGAUGGCCGAGGACCGGUACGGCCGCCACUCGGAGUGAUGUUCCGAAGACUGCAAAAUAAAA | 252
35 | CGCGCGCGUUGAGAGGCGCGCGCGAAUGAUACCAGUAUAUAAGAAUACCCUUGGCAGCAUAAGAAAGAUAUAGUGAUGUUGUAUA [SSTheophA.E] | 188
36 | GGAUAGGACAAAGGAUAUGGUAGUGAUGUUACCAAACUGGUUAAACAUGUCAGAAAACUGGCAUGACCAGAAGGUUGUCCUAUCG [FmnBX 27 A11+U75] | 66.9
37 | UAUUAAUAUUUUUCAGUGAUGUUAAUUGAUACCAGCCCGAAACCGGGCCCUUGGCAGCGAGUGAUGUUGGUUGUCAGCAUAAAUA [KL-XTheo-A13] | 667
38 | AUCGUUGUCUGAGGAUAUCGUUUAACUGUAGUGAUGUUACAGAAAAUUCAUAUUAUAUUUUCUAUUCGAGAAGGCAGACUACGUA [JR_ExcFMNB_Sub016] | 138
39 | UCUGGUAUAUCUGAUACCAGAGUAUAGUAUCAAUUGCAUAUCCGCAGUGAUGUUGCGGAACUCCCUUGGCAGCAGAUCUAUCUCU [Same State Theophylline B GF 26] | 70
40 | GGUCCGGGCUCGGCCGCCACUCCCUCGUACCGCAAGGUAUGAUACCGAGUGAUGUUCGGUUGGAGGAGGACCGGGAGCCCGGACC [#2 Exclusion - Tryptophan B Attempt #9 (HarryS)] | 100
41 | UAAUAAUAAUGAUAAUAAUAAAGUGGUGGACGAGGACCGGUACGGCCGCCACUCGAAAAUGCAGUGAUGUUGUAAUACAAAUAAU [Exclusion - Tryptophan A (Freestyle 1)] | 86.6
42 | AAGCAUUGGUCUGAUACCAGUUGAUGACGAAUACGUCAACUGGAGUGAUGUUCCUAAAACAACCCUUGGCAGCAGACCGAUGCAA [MAT - Same State Theophlline B - Mod of Eli - D2] | 838
43 | GCGGGCGGCUGAAGGAGCGGGCGGGCCCGAGUGAUGUUCGGGUGGGCUGUGAGGCCCGGAGCCCAGGUAGGUCGCGGUUCCGCCC [#2 Same State - Arginine B Attempt #26 (HarryS)] | 133

— the supplement of paper PMC9170038
